Assay results as given in patent publication US20190389966A1 (Regeneron, published 2019).

Target: T1, MUC16 on OVCAR-3 cells (human, UniProt Q8WXI7 1-14507)
T1 construct: whole, on cells; also called Mucin 16
Test: FACS binding to OVCAR-3 cells

B1: BSMUC16/CD3-001 (bispecific antibody, V domains shown)
VH 1: QVQLVESGGGLVKPGGSLRLSCAASGFTFSNYYMSWVRQAPGKGLEWISYISGRGSTIFYADSVKGRITISRDNAKNSLFLQMNSLRAEDTAVYFCVKDRGGYSPYWGQGTLVTVSS
VH 2: EVQLVESGGGLVQPGRSLRLSCAASGFTFDDYSMHWVRQAPGKGLEWVSGISWNSGSKGYADSVKGRFTISRDNAKNSLYLQMNSLRAEDTALYYCAKYGSGYGKFYHYGLDVWGQGTTVTVSS
VL: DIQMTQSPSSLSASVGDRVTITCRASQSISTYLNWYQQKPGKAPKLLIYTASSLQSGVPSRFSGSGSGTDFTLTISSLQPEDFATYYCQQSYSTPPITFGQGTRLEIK
notes: It was biotinylated in the ELISA and DFO/89Zr-labelled at Gln 295 for PET; also called anti-MUC16xCD3 bispecific antibody; BSMUC16/CD3-0001
binding result: binds
